B1: PdeL, full-length c-di-GMP phosphodiesterase and transcription factor of E. coli (enzyme, UniProt P21514 1-362, looked up)
chain: MNSCDFRVFLQEFGTTVHLSLPGSVSEKERLLLKLLMQGMSVTEISQYRNRSAKTISHQKKQLFEKLGIQSDITFWRDIFFQYNPEIISATGSNSHRYINDNHYHHIVTPEAISLALENHEFKPWIQPVFCAQTGVLTGCEVLVRWEHPQTGIIPPDQFIPLAESSGLIVIMTRQLMKQTADILMPVKHLLPDNFHIGINVSAGCFLAAGFEKECLNLVNKLGNDKIKLVLELTERNPIPVTPEARAIFDSLHQHNITFALDDFGTGYATYRYLQAFPVDFIKIDKSFVQMASVDEISGHIVDNIVELARKPGLSIVAEGVETQEQADLMIGKGVHFLQGYLYSPPVPGNKFISEWVMKAGG
B2: PdeL L168R, tetramerization-deficient variant (enzyme, E. coli)
chain: NSCDFRVFLQEFGTTVHLSLPGSVSEKERLLLKLLMQGMSVTEISQYRNRSAKTISHQKKQLFEKLGIQSDITFWRDIFFQYNPEIISATGSNSHRYINDNHYHHIVTPEAISLALENHEFKPWIQPVFCAQTGVLTGCEVLVRWEHPQTGIIPPDQFIPLAESSGRIVIMTRQLMKQTADILMPVKHLLPDNFHIGINVSAGCFLAAGFEKECLNLVNKLGNDKIKLVLELTERNPIPVTPEARAIFDSLHQHNITFALDDFGTGYATYRYLQAFPVDFIKIDKSFVQMASVDEISGHIVDNIVELARKPGLSIVAEGVETQEQADLMIGKGVHFLQGYLYSPPVPGNKFISEWVMKAGG
B3: CB CDB oligo (4695/4696) (dsDNA)
DNA 1: TGCTGAATGGATTCAGTCTTAATGAGTGGG
DNA 2: CCCACTCATTAAGACTGAATCCATTCAGCA

Assays:
SEC-MALS = molecular target: the molecule itself; assay: SEC-MALS
mass photometry = molecular target: the molecule itself; assay: mass photometry
MST = molecular target: the molecule itself; assay: MST
Cra = Cra (Escherichia coli, UniProt P0ACP1 1-334); assay: EMSA
Chain of Cra (P0ACP1 whole entry): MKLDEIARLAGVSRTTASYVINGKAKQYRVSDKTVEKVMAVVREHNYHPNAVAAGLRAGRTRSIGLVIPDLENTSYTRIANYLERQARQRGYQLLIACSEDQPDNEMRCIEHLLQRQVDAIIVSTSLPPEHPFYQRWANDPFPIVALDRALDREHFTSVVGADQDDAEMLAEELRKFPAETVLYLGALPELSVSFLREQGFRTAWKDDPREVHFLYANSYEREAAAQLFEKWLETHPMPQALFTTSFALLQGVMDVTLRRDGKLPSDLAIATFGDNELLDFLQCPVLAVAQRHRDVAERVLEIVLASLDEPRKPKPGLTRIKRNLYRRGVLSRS

PdeL;Cra = PdeL;Cra (Escherichia coli;Escherichia coli, UniProt P21514;P0ACP1 1-362;1-334, |); assay: EMSA
Chain of PdeL;Cra (P0ACP1 whole entry, chain 2 of 2, one chain of several): as the sequence (P0ACP1 whole entry) above

Binder | stoichiometry N (SEC-MALS) | stoichiometry N (mass photometry) | Kd (MST) | Kd (Cra) | Kd (PdeL;Cra)
B1 | 4 | 2 | 9000 nM |  | 
B2 | 2 |  |  |  | 
B3 |  |  |  | 49 nM | 76 nM
